Assay results: publication PMC10037535

Molecular target: F-4p-18mer-tail (synthetic fluorescein-labeled tetraphosphorylated PTEN C-tail peptide)
Test: fluorescence polarisation

How did the fold weakening of the phospho-tail interaction against wild-type VSP turn out when “VSP Asp mutants of the active site Lys residues (Lys364 and Lys367) (domain or fragment)” was run?
The fold weakening of the phospho-tail interaction against wild-type VSP was 3.4 fold.
